Results from patent US20250361296A1 (BIOCYTOGEN PHARMACEUTICALS BEIJING, published 2025).

T1: human SIGLEC10 on CHO-S-hSIGLEC10 cells (human, UniProt Q96LC7 17-550)
T1 sequence: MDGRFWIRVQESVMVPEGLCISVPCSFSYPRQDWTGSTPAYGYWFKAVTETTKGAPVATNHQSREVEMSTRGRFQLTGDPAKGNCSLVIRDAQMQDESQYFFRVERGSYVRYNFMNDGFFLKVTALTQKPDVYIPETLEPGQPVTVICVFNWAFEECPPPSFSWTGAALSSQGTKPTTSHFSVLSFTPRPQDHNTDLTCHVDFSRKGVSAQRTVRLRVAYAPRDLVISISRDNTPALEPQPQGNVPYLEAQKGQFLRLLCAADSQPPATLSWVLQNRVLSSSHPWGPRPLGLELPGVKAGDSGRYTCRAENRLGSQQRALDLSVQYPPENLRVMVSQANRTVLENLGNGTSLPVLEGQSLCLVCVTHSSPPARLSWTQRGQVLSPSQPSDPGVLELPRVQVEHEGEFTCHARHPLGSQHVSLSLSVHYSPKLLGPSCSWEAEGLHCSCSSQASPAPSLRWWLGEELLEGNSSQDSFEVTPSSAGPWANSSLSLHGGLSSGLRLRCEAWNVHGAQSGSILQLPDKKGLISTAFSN

T2: hSIGLEC15 protein captured in the epitope analysis of Example 4 (human, UniProt Q6ZMC9 20-263, limits assumed)
T2 sequence: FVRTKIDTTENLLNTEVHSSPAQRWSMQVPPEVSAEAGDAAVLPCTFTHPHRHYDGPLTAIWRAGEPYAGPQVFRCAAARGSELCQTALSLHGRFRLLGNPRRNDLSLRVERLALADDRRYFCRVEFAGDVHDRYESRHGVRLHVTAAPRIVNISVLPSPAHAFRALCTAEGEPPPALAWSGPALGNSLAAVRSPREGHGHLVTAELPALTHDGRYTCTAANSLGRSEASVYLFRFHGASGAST

B1: anti-SIGLEC15 antibody 10A7 (antibody, human IgG1, V domains shown)
VH: EVQLVQSGGGLVQPGGSLRLSCAASGFTFSNYEMNWVRQAPGKGLEWISYISNSGSTIYYADSVKGRFTISRDDAKNSLYLQMNSLRAEDTAVYYCAREDYDSSGYYWFDPWGQGTPVTVSS
VL: DIQLTQSPSSVSASVGDRVTITCRASQGISSWLAWYQQKPGKAPKLLIYAASSLQSGVPSRFSGSGSGTDFTLTINSLQPEDFATYYCQQTNSFPLTFGGGTKVEIK
B2: anti-SIGLEC15 antibody 10C9 (antibody, human IgG1, V domains shown)
VH: QVQLVQSGAEVKKPGATVKVSCKASGYTFTNYGFSWVRQAPGQGLEWMGWINTYNDNTNYAQKFQGRVTMTTDTSTSTAYMELRSLRSDDTAVYYCARDGLWFGELPHYFDYWGQGTLVTVSS
VL: DIQLTQSPLSSPVTLGQPASISCRSSQSLVNSDGETFLSWLQQRPGQPPRLLIYKISNRFSGVPDRFSGSGAGTDFTLKISRVEAEDVGVYYCMQATQFPHTFGQGTKLEIK
B3: anti-SIGLEC15 antibody 23F4 (antibody, human IgG1, V domains shown)
VH: QVQLQQWGAGLLKPSETLSLTCAVYGGSFSGYFWSWIRQPPGKGLEWIGEINHSGSTNYNPSLKSRVTLSVDTSKNQFSLKLSSVTAADTAVYYCAREGDSSSWGNWFDPWGQGTLVTVSS
VL: EIVLTQSPGTLSLSPGERATLSCRASQSVSSSYLAWYQQKPGQAPRFLIYGASSRATGIPDRFSGSGSGTDFTLTISRLEPEDFAVYYCQQFGNSPLTFGGGTKVEIK

Tests used:
[1] = target: human SIGLEC7 on CHO-S-hSIGLEC7 cells (human, UniProt Q9Y286 19-353); experiment: flow cytometry, CHO-S cells expressing the target
human SIGLEC7 on CHO-S-hSIGLEC7 cells, sequence (Q9Y286 19-353): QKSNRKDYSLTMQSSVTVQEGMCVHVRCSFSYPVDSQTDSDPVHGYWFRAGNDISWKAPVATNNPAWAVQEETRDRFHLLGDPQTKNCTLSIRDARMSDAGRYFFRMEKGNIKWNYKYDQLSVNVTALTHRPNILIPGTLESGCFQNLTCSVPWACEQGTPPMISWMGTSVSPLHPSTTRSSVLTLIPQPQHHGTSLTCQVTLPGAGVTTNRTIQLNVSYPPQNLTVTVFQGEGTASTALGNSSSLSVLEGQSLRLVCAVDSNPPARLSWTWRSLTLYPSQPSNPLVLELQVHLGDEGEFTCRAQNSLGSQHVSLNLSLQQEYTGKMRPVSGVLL
Method: (§1) CHO-S-hSIGLEC15 cells, CHO-S-mSIGLEC15 cells, CHO-S-fasSIGLEC15 cells or CHO-S-dSIGLEC15 cells were transferred to a 96-well plate at a density of 5×10⁴ cells/well respectively. Serially diluted sample anti-SIGLEC15 antibodies were added to the 96-well plate, and incubated at 4° C. for 30 min. Then, the cells were incubated with the secondary antibody anti-hIgG-Fc-Alex Flour 647 (RL1-H) (Jackson ImmunoResearch Laboratories, Inc., 109-606-170) at 4° C. in the dark for 15 minutes before flow cytometry analysis.
(§2) Another similar experiment was performed to determine whether the anti-SIGLEC15 antibodies can bind with other SIGLEC family proteins. CHO-S-hSIGLEC1 cells (expressing hSIGLEC1, SEQ ID NO: 49)), CHO-S-hSIGLEC2 cells (expressing hSIGLEC2, SEQ ID NO: 50), CHO-S-hSIGLEC4 cells (expressing hSIGLEC4, SEQ ID NO: 51), CHO-S-hSIGLEC5 cells (expressing hSIGLEC5, SEQ ID NO: 52), CHO-S-hSIGLEC6 cells (expressing hSIGLEC6, SEQ ID NO: 53), CHO-S-hSIGLEC7 cells (expressing hSIGLEC7, SEQ ID NO: 54), CHO-S-hSIGLEC8 cells (expressing hSIGLEC8, SEQ ID NO: 55), CHO-S-hSIGLEC9 cells (expressing hSIGLEC9, SEQ ID NO: 56), CHO-S-hSIGLEC10 cells (expressing hSIGLEC10, SEQ ID NO: 57), CHO-S-hSIGLEC11 cells (expressing hSIGLEC11, SEQ ID NO: 58), CHO-S-hSIGLEC12 cells (expressing hSIGLEC12, SEQ ID NO: 59), CHO-S-hSIGLEC14 cells (expressing hSIGLEC14, SEQ ID NO: 60) or CHO-S-hSIGLEC16 cells (expressing hSIGLEC16, SEQ ID NO: 61) were used.

[2] = target: T1, human SIGLEC10 on CHO-S-hSIGLEC10 cells; experiment: flow cytometry, CHO-S cells expressing the target
Method: as §1, §2

[3] = target: T2, hSIGLEC15 protein captured in the …; experiment: BLI pairwise binning on captured hSIGLEC15, 200 nM each antibody; competitor 10C9
Method: Relative positions of target protein epitope between a pair of purified anti-SIGLEC15 antibodies were analyzed by Biolayer Interferometry (BLI) using ForteBio Octet system at 30° C. A total of 4 purified antibodies were used: 5G12, 10A7, 10C9 and 23F4.
1×HBS-EP+ buffer (10 mM 4-(2-hydroxyethyl)-1-piperazineethanesulfonic acid (HEPES), 150 mM NaCl, 3 mM ethylenediaminetetraacetic acid (EDTA) and 0.05% P20, pH7.4) diluted from HBS-EP+ buffer (10×) was used as the running buffer throughout the experiment. About 100 RU of hSIGLEC15 protein was captured at a flow rate of 10 μL/min, and 200 nM of antibody was injected at a flow rate of 30 μL/min to bind the ligand. Another antibody was injected under the same conditions to determine whether the binding of different antibodies interfered with each other. The binding time was 300 s for each antibody.
The binding value of each antibody was obtained using Data Analysis HT 12.0. To quantify the interference of one antibody binding to another, a binding ratio was calculated to compare each pair of antibodies. The binding ratio is defined as the binding value of the second antibody (analyte 2), divided by the binding value of the first antibody (analyte 1). […] In general, antibody pairs that interfere with each other have the same or overlapping epitopes.

| Binder | Percentage of Positive Cells [1] [%] | binding result [1] | Percentage of Positive Cells [2] [%] | binding result [2] | binding ratio [3] |
| --- | --- | --- | --- | --- | --- |
| B1 | 0.2 | no binding | 1.4 | no binding | 0.16 |
| B2 | 0.4 | no binding | 1.5 | no binding | 0.11 |
| B3 | 1 | no binding | 1.6 | no binding | 0.62 |
